According to patent publication US5786145A, “Oligonucleotide competitors for binding of HIV RRE to REV protein and assays for screening inhibitors of this binding” (Medical Research Council, priority 1995, dated 1998):
“Also recorded” adds a separate entry of the source. Like-named read-outs stand apart in the source and are kept apart here.

What was measured:
rev protein [1] = assay: Competition filter binding against labelled RRE RNA (FIG. 11); design: species or system HIV-1; conditions: 17 nM rev, 0.5 pM labelled RRE RNA; read-out: D1/2, competitor concentration reducing rev binding to labelled RRE RNA by 50%
Experimental: Unlabelled RRE RNA was an effective competitor and reduced rev binding to the labelled RRE RNA by 50% of the initial value with a D1/2 =2 nM. The short R33 transcript was also an effective competitor and reduced rev binding with D1/2 =8 nM. The mutations in the "bubble" either reduce or abolish specific rev binding.
Filter binding reactions contained 17 nM rev, 0.5 pM labelled RRE RNA and between 0-100 nM unlabelled competitor RNA. Empty squares, RRE RNA competitor; filled circles, R33 RNA competitor; filled triangles, R34 RNA competitor; empty triangles, R35 RNA competitor.

rev protein [2] = assay: Saturation filter binding of rev to labelled RNA transcripts; design: species or system HIV-1; conditions: for rev binding, result in words: saturation filter binding, 0 to 10 nM rev
Experimental: Rev protein was expressed and purified as described (33) or further purified by chromatography on Heparin-Sepharose. Rev was applied to Heparin columns in a buffer containing 200 mM NaCl/50mM Tris-HCl pH8.0/1 mM DTT/0.1 mM EDTA 0.1% Triton X-100 and eluted in buffer containing 2M NaCl. After gel filtration on Superose 6 (prep grade) columns equilibrated with 200 mM NaCl/50 mM Tris-HCl pH8.0/1 mM DTT/0.1 mM EDTA, the rev protein appeared homogeneous on SDS-polyacrylamide gels and free of RNA contaminants. Rev concentrations were determined by amino acid analysis of the purified protein.
DNA inserts containing RRE-related sequences were cloned between the EcoRI (5') and HindIII (3') sites of pGEM 1, either by cloning PCR products or by cloning annealed pairs of synthetic oligonucleotides. RNA transcripts for binding experiments were prepared by transcription of HindIII cut plasmids using T7 RNA polymerase and purified by gel electrophoresis. These transcripts carry a 5' extension of 15 nucleotides contributed by the vector and an extra A residue at the 3' end from the HindIII site, as described above.
For filter binding assays, each reaction mixture contained 20 pg of uniformly labelled RNA probe (approximately 500 cpm/pg RNA), […] sonicated salmon sperm DNA, […] yeast tRNA, 40 units RNasin (Promega) in […] TK buffer (43 mM Tris-HCl pH8.0, 50 mM KCl). Incubation was at 4° C. for 15 minutes in the presence of 0 to 10 nM purified rev protein. To measure binding, each reaction mixture was applied under gentle vacuum to a 0.45 um Millipore filter which had been pre-wetted with TK buffer. The filters were washed with […] TK buffer, dried, and radioactivity counted by liquid scintillation.
Filter binding assays contained 20 pg uniformly labelled RNA probe (500 dpm per pg RNA), 1 μg salmon sperm DNA, 0.45 μg yeast tRNA and 40 units RNasin (Promega) in 500 μl buffer containing 43 mM Tris-HCl pH 8.0, 50 mM KCl. Mutations in the purine-rich "bubble" sequence (numbered as shown in FIG. 2) were introduced into the R33 stem-loop structure (FIG. 3d) by site-directed mutagenesis.

HIV-1 Rev [3] = target: T1, HIV-1 Rev (Human immunodeficiency virus 1, UniProt P04618 P04618:1-116); assay: filter; shortest T7 transcript with full affinity; conditions: tags: none stated; heparin-Sepharose and Superose 6 purified; chain copies: oligomer (tetramer likely; about 4 per RBC6, 6-8 per full-length RRE at 50 mM KCl) stated; label: 32P uniform; stem-loop with purine-rich bubble
HIV-1 Rev [4] = target: T1, HIV-1 Rev; assay: filter; normal rev binding; conditions: tags: none stated; heparin-Sepharose and Superose 6 purified; chain copies: oligomer (tetramer likely; about 4 per RBC6, 6-8 per full-length RRE at 50 mM KCl) stated; label: 32P uniform; stem-loop with purine-rich bubble
HIV-1 Rev [5] = target: T1, HIV-1 Rev; assay: competition; competes with same affinity as RBC6; conditions: tags: none stated; heparin-Sepharose and Superose 6 purified; chain copies: oligomer (tetramer likely; about 4 per RBC6, 6-8 per full-length RRE at 50 mM KCl) stated; RNA three-way junction stabilising bubble (all strands RNA)
HIV-1 Rev [6] = target: T1, HIV-1 Rev; assay: filter; bubble not formed; conditions: tags: none stated; heparin-Sepharose and Superose 6 purified; chain copies: oligomer (tetramer likely; about 4 per RBC6, 6-8 per full-length RRE at 50 mM KCl) stated; label: 32P uniform
HIV-1 Rev [7] = target: T1, HIV-1 Rev; assay: filter; 50 mM KCl, 4 C; 21% bound at 10 nM rev; conditions: tags: none stated; heparin-Sepharose and Superose 6 purified; chain copies: oligomer (tetramer likely; about 4 per RBC6, 6-8 per full-length RRE at 50 mM KCl) stated; label: 32P uniform
HIV-1 Rev [8] = target: T1, HIV-1 Rev; assay: filter; 50 mM KCl, 4 C; 18% bound at 10 nM rev; conditions: tags: none stated; heparin-Sepharose and Superose 6 purified; chain copies: oligomer (tetramer likely; about 4 per RBC6, 6-8 per full-length RRE at 50 mM KCl) stated; label: 32P uniform
HIV-1 Rev [9] = target: T1, HIV-1 Rev; assay: filter; 50 mM KCl, 4 C; 17% bound at 10 nM rev; conditions: tags: none stated; heparin-Sepharose and Superose 6 purified; chain copies: oligomer (tetramer likely; about 4 per RBC6, 6-8 per full-length RRE at 50 mM KCl) stated; label: 32P uniform
HIV-1 Rev [10] = target: T1, HIV-1 Rev; assay: filter; 50 mM KCl, 4 C; 15% bound at 10 nM rev; conditions: tags: none stated; heparin-Sepharose and Superose 6 purified; chain copies: oligomer (tetramer likely; about 4 per RBC6, 6-8 per full-length RRE at 50 mM KCl) stated; label: 32P uniform
HIV-1 Rev [11] = target: T1, HIV-1 Rev; assay: filter; 50 mM KCl, 4 C; 40% bound at 10 nM rev; conditions: tags: none stated, heparin-Sepharose and Superose 6 purified, chain copies: oligomer (tetramer likely; about 4 per RBC6, 6-8 per full-length RRE at 50 mM KCl) stated, label: 32P uniform
HIV-1 Rev [12] = target: T1, HIV-1 Rev; assay: filter; 50 mM KCl, 4 C; 20% bound at 10 nM rev; conditions: tags: none stated; heparin-Sepharose and Superose 6 purified; chain copies: oligomer (tetramer likely; about 4 per RBC6, 6-8 per full-length RRE at 50 mM KCl) stated; label: 32P uniform
HIV-1 Rev [13] = target: T1, HIV-1 Rev; assay: competition; D1/2 vs labelled RRE RNA, 17 nM rev; conditions: tags: none stated, heparin-Sepharose and Superose 6 purified, chain copies: oligomer (tetramer likely; about 4 per RBC6, 6-8 per full-length RRE at 50 mM KCl) stated, label: 32P uniform
HIV-1 Rev [14] = target: T1, HIV-1 Rev; assay: filter; 50 mM KCl, 4 C; 35% bound at 10 nM rev; conditions: tags: none stated; heparin-Sepharose and Superose 6 purified; chain copies: oligomer (tetramer likely; about 4 per RBC6, 6-8 per full-length RRE at 50 mM KCl) stated; label: 32P uniform; stem-loop with altered bubble
HIV-1 Rev [15] = target: T1, HIV-1 Rev; assay: filter; same affinity as full-length RRE; conditions: tags: none stated; heparin-Sepharose and Superose 6 purified; chain copies: oligomer (tetramer likely; about 4 per RBC6, 6-8 per full-length RRE at 50 mM KCl) stated; label: 32P uniform; stem-loop with purine-rich bubble
HIV-1 Rev [16] = target: T1, HIV-1 Rev; assay: filter; conditions: tags: none stated, heparin-Sepharose and Superose 6 purified, chain copies: oligomer (tetramer likely; about 4 per RBC6, 6-8 per full-length RRE at 50 mM KCl) stated, label: 32P uniform
[17] = Table I, filter binding, 20 pg labelled RNA probe, 50 mM KCl, read-out: Kd
[18] = stem-loop with purine-rich bubble on 9-bp stem

Molecule: R34 (GGGAGACCGGAAUUCUGCGCAGUGUCAUUGACGCUGCGGUACAGAAUUCCGGC; chemistry not given here)
- IC50 (rev protein [1]): > 250 nM
- % RNA bound (10 nM rev) (rev protein [2]; Table I, 50 mM KCl): 3%
- rev binding, result in words (rev protein [2]): abolished specific rev binding; also recorded: does not bind rev with measurable affinity

Molecule: R33: stem-loop of residues 33 to 63, A56 deleted, inserted on top of a stem containing 9 base pairs; wild-type bubble (GGGAGACCGGAAUUCUGGGCGCAGUGUCAUUGACGCUGCGGUACAGAAUUCCGGCA; chemistry not given here)
- IC50 (rev protein [1]): 8 nM
- % RNA bound (10 nM rev) (rev protein [2]; Table I, 50 mM KCl): 40%
- Kd (rev protein [2]; [17]): 3 nM
- rev binding, result in words (rev protein [2]): Normal rev binding

Molecule: R35 (GGGAGACCGGAAUUCUGGCGCAGUGUCAUUGACGCUGCGGUACAGAAUUCCGGCA; chemistry not given here)
- IC50 (rev protein [1]): 16 nM
- % RNA bound (10 nM rev) (rev protein [2]; Table I, 50 mM KCl): 35%
- Kd (rev protein [2]; [17]): 4 nM
- Kd (rev protein [2]; saturation filter binding of T7 transcripts, read-out: Kd for rev binding): 4 nM
- rev binding, result in words (rev protein [2]): reduced rev binding slightly

Molecule: GGGAGACCGGAAUUCUGGGCGCAGUGUCAUUGACGCUGACGGUACAGGCA (ssRNA) [R19 (RRE 33-66)]
- Kd (HIV-1 Rev [3]): 1.73 nM

Molecule: GGGAGACCGGAAUUCUGGGCGCAGUGUCAAUGACGCUGACGGUACAGGCA (ssRNA) [R29 (apex loop antisense)]
- binding result (HIV-1 Rev [4]): binds

B1: TWJ-U (structured_DNA)
DNA 1: GCACUAUGGGCGCAGC
DNA 2: GCUGCGGUACAGGCCAGA
DNA 3: UCUGGUAUAGUGC
- binding result (HIV-1 Rev [5]): binds

B2: RRE fragment 26-72 (ssRNA)
RNA: GGGAGACCGGAAUUCAGCACUAGGGCGCAGUGUCAUUGACGCUGAGGGUACAGGCCAGACAAUUAUA
- binding result (HIV-1 Rev [6]): no binding

B3: R55 (ssRNA)
RNA: GGGAGACCGGAAUUCUAGGCGCAGUGUCAUUGACGCUGCGGUAUAGAAUUCCGGCA
modifications: [-]
- Kd (HIV-1 Rev [7]): 4 nM

B4: R52 (ssRNA)
RNA: GGGAGACCGGAAUUCUGGGCGCAGUGUCAUUGACGCUGCGGCACAGAAUUCCGGCA
modifications: [-]
- Kd (HIV-1 Rev [8]): 5 nM

B5: R54 (ssRNA)
RNA: GGGAGACCGGAAUUCCGGGCGCAGUGUCAUUGACGCUGCGGUACGGAAUUCCGGCA
modifications: [-]
- Kd (HIV-1 Rev [9]): 6 nM

B6: R39 (ssRNA)
RNA: GGGAGACCGGAAUUCAGGGCGCAGUGUCAUUGACGCUGCGGUACUGAAUUCCGGCA
modifications: [-]
- Kd (HIV-1 Rev [10]): 8 nM

B7: R57 (ssRNA)
RNA: GGGAGACCGGAAUUCUGGGCACAGUGUCAUUGACGCUGUGGUACAGAAUUCCGGCA
modifications: [-]
- Kd (HIV-1 Rev [11]): 3 nM

B8: R50 (ssRNA)
RNA: GGGAGACCGGAAUUCUGGACGCAGUGUCAUUGACGCUGCGGUACAGAAUUCCGGCA
modifications: [-]
- Kd (HIV-1 Rev [12]): 5 nM

B9: R42 (ssRNA)
RNA: GGGAGACCGGAAUUCUGGGCCCAGUGUCAUUGACGCUGGGGUACAGAAUUCCGGCA
modifications: [none]
- Kd (HIV-1 Rev [8]): 8 nM

B10: R33 (ssRNA)
RNA: GGGAGACCGGAAUUCUGGGCGCAGUGUCAUUGACGCUGCGGUACAGAAUUCCGGCA
- Kd (HIV-1 Rev [11]; [18]): 3 nM
- IC50 (HIV-1 Rev [13]; [18]): 8 nM

B11: R35 (dG35) (ssRNA)
RNA: GGGAGACCGGAAUUCUGGCGCAGUGUCAUUGACGCUGCGGUACAGAAUUCCGGCA
- IC50 (HIV-1 Rev [13]; stem-loop with altered bubble): 16 nM
- Kd (HIV-1 Rev [14]): 4 nM

B12: RRE fragment 1-96 (ssRNA)
RNA: GGGAGACCGGAAUUCCCUUGGGUUCUUGGGAGCAGCAGGAAGCACUAUGGGCGCAGUGUCAUUGACGCUGACGGUACAGGCCAGACAAUUAUUGUCUGGUAUAGUGCAACA
- binding result (HIV-1 Rev [15]): binds

Molecule: GGGAGACCGGAAUUCUGGGCGCAGUGUCAUUGACGCUGCGGUACAGGCA (ssRNA) [R22 (A56 deleted)]
- Kd (HIV-1 Rev [16]; stem-loop with purine-rich bubble): 1.73 nM

Molecule: GGGAGACCGGAAUUCUGGGCGCAGCGUCAUUGACACUGCGGUACAGGCA (ssRNA) [R30 (upper stem antisense)]
- binding result (HIV-1 Rev [4]): binds

B13: RRE fragment 26-92 (ssRNA)
RNA: GGGAGACCGGAAUUCAGCACUAUGGGCGCAGUGUCAUUGACGCUGACGGUACAGGCCAGACAAUUAUUGUCUGGUAUAGUGCA
- binding result (HIV-1 Rev [15]): binds

Molecule: GGGAGACCGGAAUUCUGGGCGCUUCGGCGGUACAGA (ssRNA) [R38 (upper stem-loop replaced by CUUCGG)]
- Kd (HIV-1 Rev [16]; hairpin with purine-rich bubble): 1.73 nM
